Reference: paper PMC5357957 (2017)

B1: HA-tagged HACE1 wild-type [human] / myc-Rac1 Q61L [not stated] (parent complex)
chain 1: MERAMEQLNRLTRSLRRARTVELPEDNETAVYTLMPMVMADQHRSVSELLSNSKFDVNYAFGRVKRSLLHIAANCGSVECLVLLLKKGANPNYQDISGCTPLHLAARNGQKKCMSKLLEYSADVNICNNEGLTAIHWLAVNGRTELLHDLVQHVSDVDVEDAMGQTALHVACQNGHKTTVQCLLDSGADINRPNVSGATPLYFACSHGQRDTAQILLLRGAKYLPDKNGVTPLDLCVQGGYGETCEVLIQYHPRLFQTIIQMTQNEDLRENMLRQVLEHLSQQSESQYLKILTSLAEVATTNGHKLLSLSSNYDAQMKSLLRIVRMFCHVFRIGPSSPSNGIDMGYNGNKTPRSQVFKPLELLWHSLDEWLVLIATELMKNKRDSTEITSILLKQKGQDQDAASIPPFEPPGPGSYENLSTGTRESKPDALAGRQEASADCQDVISMTANRLSAVIQAFYMCCSCQMPPGMTSPRFIEFVCKHDEVLKCFVNRNPKIIFDHFHFLLECPELMSRFMHIIKAQPFKDRCEWFYEHLHSGQPDSDMVHRPVNENDILLVHRDSIFRSSCEVVSKANCAKLKQGIAVRFHGEEGMGQGVVREWFDILSNEIVNPDYALFTQSADGTTFQPNSNSYVNPDHLNYFRFAGQILGLALNHRQLVNIYFTRSFYKHILGIPVNYQDVASIDPEYAKNLQWILDNDISDLGLELTFSVETDVFGAMEEVPLKPGGGSILVTQNNKAEYVQLVTELRMTRAIQPQINAFLQGFHMFIPPSLIQLFDEYELELLLSGMPEIDVSDWIKNTEYTSGYEREDPVIQWFWEVVEDITQEERVLLLQFVTGSSRVPHGGFANIMGGSGLQNFTIAAVPYTPNLLPTSSTCINMLKLPEYPSKEILKDRLLVALHCGSYGYTMA
chain 2: not shown

Variants of: B1
Assay: co-immunoprecipitation (anti-myc IP), quantified; cells co-transfected with myc-Rac1 Q61L and HA-tagged HACE1 mutants; n ≥ 4 biological replicates; parent: 1; read off a plot

Row | Variant | ratio to parent
1 | chain 1 G175C | ~0.14
2 | chain 1 M114V | ~2.3
3 | chain 1 V140A | ~3.2
4 | chain 1 G175S | ~0.18
5 | chain 1 V140L | ~0.55
6 | chain 1 A204T | ~0.11
7 | chain 1 N174A | ~0.26
8 | chain 1 Q173A | ~0.28
